Assay results reported in US20180072798A1.

Tests used:
[1] = target: DENV-1 virus particle, strain 05K2916 (167), live (dengue virus serotype 1 (DENV-1), strain 05K2916); assay: cell-based or functional assay
[2] = target: DENV-2 virus particle, strain TSV01, live (dengue virus serotype 2 (DENV-2), strain TSV01); assay: cell-based or functional assay
[3] = target: DENV-3 virus, strain VN32/96 (dengue virus serotype 3 (DENV-3), strain VN32/96); assay: cell-based or functional assay
[4] = target: DENV-4 virus particle, strain 2641Y08, live (dengue virus serotype 4 (DENV-4), strain 2641Y08); assay: cell-based or functional assay
[5] = target: DENV-2 (TSV01) E protein mutant E49A, soluble part, V5 tag, from S2 cells (dengue virus serotype 2 (DENV-2), strain TSV01); assay: sandwich ELISA, V5-tagged soluble E captured by anti-V5
[6] = target: DENV-2 (TSV01) E protein mutant F108A, soluble part, V5 tag, from S2 cells (dengue virus serotype 2 (DENV-2), strain TSV01); assay: as above
[7] = target: DENV-2 (TSV01) E protein mutant G100A, soluble part, V5 tag, from S2 cells (dengue virus serotype 2 (DENV-2), strain TSV01); assay: as above
[8] = target: DENV-2 (TSV01) E protein mutant K295A, soluble part, V5 tag, from S2 cells (dengue virus serotype 2 (DENV-2), strain TSV01); assay: as above
[9] = target: DENV-2 (TSV01) E protein mutant K64A, soluble part, V5 tag, from S2 cells (dengue virus serotype 2 (DENV-2), strain TSV01); assay: as above
[10] = target: DENV-2 (TSV01) E protein mutant N134A, soluble part, V5 tag, from S2 cells (dengue virus serotype 2 (DENV-2), strain TSV01); assay: as above
[11] = target: DENV-2 (TSV01) E protein mutant N153A, soluble part, V5 tag, from S2 cells (dengue virus serotype 2 (DENV-2), strain TSV01); assay: as above
[12] = target: DENV-2 (TSV01) E protein mutant N203A, soluble part, V5 tag, from S2 cells (dengue virus serotype 2 (DENV-2), strain TSV01); assay: as above
[13] = target: DENV-2 (TSV01) E protein mutant Q167A, soluble part, V5 tag, from S2 cells (dengue virus serotype 2 (DENV-2), strain TSV01); assay: as above
[14] = target: DENV-2 (TSV01) E protein mutant Q77A, soluble part, V5 tag, from S2 cells (dengue virus serotype 2 (DENV-2), strain TSV01); assay: as above
[15] = target: DENV-2 (TSV01) E protein mutant R323A, soluble part, V5 tag, from S2 cells (dengue virus serotype 2 (DENV-2), strain TSV01); assay: as above
[16] = target: DENV-2 (TSV01) E protein mutant S169A, soluble part, V5 tag, from S2 cells (dengue virus serotype 2 (DENV-2), strain TSV01); assay: as above
[17] = target: DENV-2 (TSV01) E protein mutant S274A, soluble part, V5 tag, from S2 cells (dengue virus serotype 2 (DENV-2), strain TSV01); assay: as above
[18] = target: DENV-2 (TSV01) E protein mutant T155A, soluble part, V5 tag, from S2 cells (dengue virus serotype 2 (DENV-2), strain TSV01); assay: as above
[19] = target: DENV-2 (TSV01) E protein mutant W101A, soluble part, V5 tag, from S2 cells (dengue virus serotype 2 (DENV-2), strain TSV01); assay: as above
[20] = target: DENV-2 (TSV01) wildtype E protein, full length, expressed with prM in HEK293 cells (dengue virus serotype 2 (DENV-2), strain TSV01); assay: flow cytometry on transfected HEK293 cells; the reference itself
[21] = target: DENV-2 (TSV01) wildtype E protein, soluble part, V5 tag, from S2 cells (dengue virus serotype 2 (DENV-2), strain TSV01); assay: sandwich ELISA, V5-tagged soluble E captured by anti-V5; the reference itself
[22] = target: DENV-2 (TSV01) E protein mutant E161A, full length, expressed with prM in HEK293 cells (dengue virus serotype 2 (DENV-2), strain TSV01); assay: flow cytometry on transfected HEK293 cells, normalised to 3H5 staining and to wt
[23] = target: DENV-2 (TSV01) E protein mutant E202A, full length, expressed with prM in HEK293 cells (dengue virus serotype 2 (DENV-2), strain TSV01); assay: as above
[24] = target: DENV-2 (TSV01) E protein mutant E49A, full length, expressed with prM in HEK293 cells (dengue virus serotype 2 (DENV-2), strain TSV01); assay: as above
[25] = target: DENV-2 (TSV01) E protein mutant F392A, full length, expressed with prM in HEK293 cells (dengue virus serotype 2 (DENV-2), strain TSV01); assay: as above
[26] = target: DENV-2 (TSV01) E protein mutant I162A, full length, expressed with prM in HEK293 cells (dengue virus serotype 2 (DENV-2), strain TSV01); assay: as above
[27] = target: DENV-2 (TSV01) E protein mutant K122A, full length, expressed with prM in HEK293 cells (dengue virus serotype 2 (DENV-2), strain TSV01); assay: as above
[28] = target: DENV-2 (TSV01) E protein mutant K295A, full length, expressed with prM in HEK293 cells (dengue virus serotype 2 (DENV-2), strain TSV01); assay: as above
[29] = target: DENV-2 (TSV01) E protein mutant K310A, full length, expressed with prM in HEK293 cells (dengue virus serotype 2 (DENV-2), strain TSV01); assay: as above
[30] = target: DENV-2 (TSV01) E protein mutant N134A, full length, expressed with prM in HEK293 cells (dengue virus serotype 2 (DENV-2), strain TSV01); assay: as above
[31] = target: DENV-2 (TSV01) E protein mutant N153A, full length, expressed with prM in HEK293 cells (dengue virus serotype 2 (DENV-2), strain TSV01); assay: as above
[32] = target: DENV-2 (TSV01) E protein mutant N203A, full length, expressed with prM in HEK293 cells (dengue virus serotype 2 (DENV-2), strain TSV01); assay: as above
[33] = target: DENV-2 (TSV01) E protein mutant Q200A, full length, expressed with prM in HEK293 cells (dengue virus serotype 2 (DENV-2), strain TSV01); assay: as above
[34] = target: DENV-2 (TSV01) E protein mutant Q77A, full length, expressed with prM in HEK293 cells (dengue virus serotype 2 (DENV-2), strain TSV01); assay: as above
[35] = target: DENV-2 (TSV01) E protein mutant R323A, full length, expressed with prM in HEK293 cells (dengue virus serotype 2 (DENV-2), strain TSV01); assay: as above
[36] = target: DENV-2 (TSV01) E protein mutant S169A, full length, expressed with prM in HEK293 cells (dengue virus serotype 2 (DENV-2), strain TSV01); assay: as above
[37] = target: DENV-2 (TSV01) E protein mutant T155A, full length, expressed with prM in HEK293 cells (dengue virus serotype 2 (DENV-2), strain TSV01); assay: as above
[38] = target: DENV-2 (TSV01) E protein mutant W101A, full length, expressed with prM in HEK293 cells (dengue virus serotype 2 (DENV-2), strain TSV01); assay: as above
[39] = target: DENV-2 (TSV01) E protein mutant W391A, full length, expressed with prM in HEK293 cells (dengue virus serotype 2 (DENV-2), strain TSV01); assay: as above

B1: 3C H5L1 antibody (antibody, V domains shown)
VH: EVQLVQSGPDVEKPGASVKVSCKASGYTFTSNYIHWVRQAPGQGLEWMGVINPRGGSTASAQKFQGRITMTRDTSTSTVYMELSSLRSDDTAVYYCARGGRALFYDSYTTPRDGGSWWFDPWGQGSLVTVSS
VL: DIQLTQSPSSLSASVGDRVTFTCQASQDIRKYLNWYQQKPGKAPKLLIYDASNLKTGVPSRFSGSGSGTDFTFTISSLQPEDVATYYCQQFDDLPITFGQGTRLQIK
For B1, the EC50, plaque reduction neutralization test (PRNT) on BHK-21 cells [1] was 0.6 µg/mL, the EC50, plaque reduction neutralization test (PRNT) on BHK-21 cells [2] was 0.001 µg/mL and the EC50, plaque reduction neutralization test (PRNT) on BHK-21 cells [3] was 0.5 µg/mL. It also gave an EC50, plaque reduction neutralization test (PRNT) on BHK-21 cells [4] of 0.07 µg/mL, a relative binding (normalised to wt E protein) (ratio to wt E protein) [5] of 0.695 and a relative binding (normalised to wt E protein) (ratio to wt E protein) [6] of 0.806. It also gave a relative binding (normalised to wt E protein) (ratio to wt E protein) [7] of 0.186, a relative binding (normalised to wt E protein) (ratio to wt E protein) [8] of 0.189 and a relative binding (normalised to wt E protein) (ratio to wt E protein) [9] of 0.444. The relative binding (normalised to wt E protein) (ratio to wt E protein) [10] was 0.221, the relative binding (normalised to wt E protein) (ratio to wt E protein) [11] was 0.806 and the relative binding (normalised to wt E protein) (ratio to wt E protein) [12] was 0.72. The relative binding (normalised to wt E protein) (ratio to wt E protein) [13] was 0.774, the relative binding (normalised to wt E protein) (ratio to wt E protein) [14] was 0.747 and the relative binding (normalised to wt E protein) (ratio to wt E protein) [15] was 0.334. The relative binding (normalised to wt E protein) (ratio to wt E protein) [16] was 0.784, the relative binding (normalised to wt E protein) (ratio to wt E protein) [17] was 0.0859 and the relative binding (normalised to wt E protein) (ratio to wt E protein) [18] was 0.839. It also gave a relative binding (normalised to wt E protein) (ratio to wt E protein) [19] of 0.242, a relative binding (normalised to wt E protein) (ratio to wt E protein) [20] of 1 and a relative binding (normalised to wt E protein) (ratio to wt E protein) [21] of 1. For the same binder, the relative binding (normalised to wt E protein) (ratio to wt E protein) [22] was 1.07, the relative binding (normalised to wt E protein) (ratio to wt E protein) [23] was 2.02 and the relative binding (normalised to wt E protein) (ratio to wt E protein) [24] was 0.996. It also gave a relative binding (normalised to wt E protein) (ratio to wt E protein) [25] of 0.133, a relative binding (normalised to wt E protein) (ratio to wt E protein) [26] of 0.242 and a relative binding (normalised to wt E protein) (ratio to wt E protein) [27] of 0.27. It also gave a relative binding (normalised to wt E protein) (ratio to wt E protein) [28] of 1.04, a relative binding (normalised to wt E protein) (ratio to wt E protein) [29] of 0.15 and a relative binding (normalised to wt E protein) (ratio to wt E protein) [30] of 1.08. It also gave a relative binding (normalised to wt E protein) (ratio to wt E protein) [31] of 0.535, a relative binding (normalised to wt E protein) (ratio to wt E protein) [32] of 0.719 and a relative binding (normalised to wt E protein) (ratio to wt E protein) [33] of 0.394. It also gave a relative binding (normalised to wt E protein) (ratio to wt E protein) [34] of 0.38, a relative binding (normalised to wt E protein) (ratio to wt E protein) [35] of 0.416 and a relative binding (normalised to wt E protein) (ratio to wt E protein) [36] of 0.963. For the same binder, the relative binding (normalised to wt E protein) (ratio to wt E protein) [37] was 0.621, the relative binding (normalised to wt E protein) (ratio to wt E protein) [38] was 0.165 and the relative binding (normalised to wt E protein) (ratio to wt E protein) [39] was 0.144.
